This series deals with the molecule itself. In words: cryo-EM 2D class averages and power spectra; 2D classification (Relion) of segments of tubes remodeled by N-BAR, N-BAR-deltaH0 or FL; liposomes 2POPG:1POPE; periodic spacings read from the power spectra; BAR dimers to a lattice on the membrane.

The values below come from article PMC4614383, “Structural insights into the cooperative remodeling of membranes by amphiphysin/BIN1” (Scientific Reports, 2015).

B1: full length Drosophila amphiphysin/BIN1 (FL, residues 1-602) (natural protein, UniProt Q7KLE5 1-602, looked up)
chain: MTENKGIMLAKSVQKHAGRAKEKILQNLGKVDRTADEIFDDHLNNFNRQQASANRLQKEFNNYIRCVRAAQAASKTLMDSVCEIYEPQWSGYDALQAQTGASESLWADFAHKLGDQVLIPLNTYTGQFPEMKKKVEKRNRKLIDYDGQRHSFQNLQANANKRKDDVKLTKGREQLEEARRTYEILNTELHDELPALYDSRILFLVTNLQTLFATEQVFHNETAKIYSELEAIVDKLATESQRGSNTLRKQTSNPIKTSSPVQSPVNKLNNANINSNYQNQITTNGGSSLANSPTSTSSSLQEPRFDSVSSTPEPRPESPAAALVSATPSSPVENGVTTKSLERPELSGLNASAKATTTTQTSPTEDKAVVSEAVKPSETEGAAVAASVTPAPPATPAQINGNNNEPSIVKEGGKQPKELPSTTSNAEAAAEAAANNGNSIEEHKQKKLGNDTTVTATETVTVTQHSVTSTDTDNIVTISDTNTDTDTKTSTGTSQKGRPVPVVNRHSVNNLNKNPFEDDDERIYEVPADANTADLPPGVLYRVKATYGYAKEDVDELSFEIGDLIRVIEYDDPEDQEEGWLMGQKEGTNEKGLFPANFTRPI
notes: amphiphysin/BIN1, Drosophila, full length, residues 1-602; Cloned either with a 3C-cleavable hexahistidine tag or a SenP2-cleavable sumo-hexahistidine tag; source: E. coli BL21 gold, purified (His-Trap, anion exchange, SEC)
B1: the binding result is “binds”.
